Test results taken from patent US20090042993.

Tests used:
[1] = biological target: BACE1 (β-site APP cleaving enzyme 1), native form BACE1WT, P56817
[2] = biological target: BACE1-myc (myc-tagged at the C-terminus version of BACE1), P56817
[3] = biological target: BACE1Ala (BACE1 with the seven acetylated lysine residues mutated to alanine), P56817
BACE1Ala (BACE1 with the seven acetylated lysine residues mutated to alanine), P56817, sequence (P56817 other isoform, or with tags, fused parts or gaps, change not shown): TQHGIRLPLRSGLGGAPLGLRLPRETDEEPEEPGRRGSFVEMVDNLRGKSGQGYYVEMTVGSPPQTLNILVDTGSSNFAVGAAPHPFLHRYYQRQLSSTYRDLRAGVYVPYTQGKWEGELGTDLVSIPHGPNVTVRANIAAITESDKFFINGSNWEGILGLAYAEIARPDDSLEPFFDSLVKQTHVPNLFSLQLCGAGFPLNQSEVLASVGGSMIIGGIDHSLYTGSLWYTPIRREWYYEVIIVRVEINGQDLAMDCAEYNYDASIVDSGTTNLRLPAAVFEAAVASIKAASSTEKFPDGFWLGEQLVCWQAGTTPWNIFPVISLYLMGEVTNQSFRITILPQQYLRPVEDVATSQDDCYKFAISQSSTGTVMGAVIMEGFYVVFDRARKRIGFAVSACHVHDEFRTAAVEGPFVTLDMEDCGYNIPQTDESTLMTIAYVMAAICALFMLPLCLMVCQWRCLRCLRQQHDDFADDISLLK

BACE1-myc (myc-tagged at the C-terminus version of BACE1), P56817, sequence (P56817 46-501): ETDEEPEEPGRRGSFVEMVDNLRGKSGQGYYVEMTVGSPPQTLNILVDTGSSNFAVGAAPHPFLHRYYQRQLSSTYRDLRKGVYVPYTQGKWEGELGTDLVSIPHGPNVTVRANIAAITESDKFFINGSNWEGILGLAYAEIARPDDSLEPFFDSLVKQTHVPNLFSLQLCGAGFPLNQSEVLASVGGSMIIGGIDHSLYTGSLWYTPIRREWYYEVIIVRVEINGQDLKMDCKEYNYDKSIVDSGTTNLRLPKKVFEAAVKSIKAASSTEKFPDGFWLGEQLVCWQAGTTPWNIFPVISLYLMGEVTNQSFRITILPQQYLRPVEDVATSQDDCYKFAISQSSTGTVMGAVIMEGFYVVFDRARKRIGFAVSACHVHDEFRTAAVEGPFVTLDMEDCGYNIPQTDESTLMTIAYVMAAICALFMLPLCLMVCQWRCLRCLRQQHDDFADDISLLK
BACE1 (β-site APP cleaving enzyme 1), native form BACE1WT, P56817, sequence (P56817 46-501): as above

B1: purified recombinant HAT fragment of p300 (histone acetyl transferase domain of recombinant CBP/p300) (protein)
chain: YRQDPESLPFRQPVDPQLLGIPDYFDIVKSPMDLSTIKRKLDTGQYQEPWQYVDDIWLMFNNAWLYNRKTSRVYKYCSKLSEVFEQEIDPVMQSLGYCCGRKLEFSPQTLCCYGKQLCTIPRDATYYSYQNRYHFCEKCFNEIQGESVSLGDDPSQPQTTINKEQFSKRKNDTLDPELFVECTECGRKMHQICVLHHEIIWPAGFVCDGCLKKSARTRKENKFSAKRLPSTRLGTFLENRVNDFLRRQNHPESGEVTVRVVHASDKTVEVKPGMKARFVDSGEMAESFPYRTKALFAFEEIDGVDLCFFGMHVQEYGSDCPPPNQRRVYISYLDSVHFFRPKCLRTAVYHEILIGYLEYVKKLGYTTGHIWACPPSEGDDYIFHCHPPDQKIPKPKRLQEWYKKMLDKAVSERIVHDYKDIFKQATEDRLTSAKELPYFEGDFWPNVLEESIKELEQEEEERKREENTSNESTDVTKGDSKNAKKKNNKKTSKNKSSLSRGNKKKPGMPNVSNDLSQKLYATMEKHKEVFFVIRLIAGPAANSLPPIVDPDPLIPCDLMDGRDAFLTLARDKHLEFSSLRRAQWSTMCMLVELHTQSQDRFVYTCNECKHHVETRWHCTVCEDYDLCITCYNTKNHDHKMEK
in vitro acetylation ([3H]Acetyl-CoA incorporation into BACE1, scintillation counting) [1]: resulted in acetylation of BACE1WT
in vitro acetylation ([3H]Acetyl-CoA incorporation into BACE1, scintillation counting) [2]: BACE1 can be acetylated in vitro, provided that is incubated in the presence of an enzymatically active acetyltransferase
in vitro acetylation ([3H]Acetyl-CoA incorporation into BACE1, scintillation counting) [3]: but not BACE1Ala
